Measured values reported in patent publication US20250188136A1, “AV3 MUTANT POLYPEPTIDES FOR PEST CONTROL” (Vestaron Corporation, priority 2021, published 2025).
“Also recorded” adds a separate entry of the source. Ends that are not written are not given here.

Key:
houseflies = assay: Housefly injection assay (knock-down); assay type: in vivo, Musca domestica; settings: for Activity: knock-down at 5 hours post-injection normalized to Av3b, Yes = insecticidal activity maintained; for housefly knock-down / insecticidal activity relative to Av3b: knock-down at 5 hours post-injection
Protocol: An exemplary housefly injection bioassay is as follows: conditioned media is serially diluted to generate full dose-response curves from the housefly injection bioassay. Before injection, adult houseflies (Musca domestica) are immobilized with CO2, and 12-18 mg houseflies are selected for injection. A microapplicator, loaded with a 1 cc syringe and 30-gauge needle, is used to inject 0.5 μL per fly, doses of serially diluted conditioned media samples into houseflies through the body wall of the dorsal thorax. The injected houseflies are placed into closed containers with moist filter paper and breathing holes on the lids, and they are examined by knock-down ratio or by mortality scoring at 24 hours post-injection. Normalized yields are calculated. Peptide yield means the peptide concentration in the conditioned media in units of mg/L. However, peptide yields are not always sufficient to accurately compare the strain production rate. […] A culture with a high cell density may produce a higher concentration of the peptide in the media, even though the peptide production rate of the strain is lower than another strain which has a higher production rate. Accordingly, the term “normalized yield” is created by dividing the peptide yield with the cell density in the corresponding culture and this allows a better comparison of the peptide production rate between strains. The cell density is represented by the light absorbance at 600 nm with a unit of “A” (Absorbance unit).
A housefly injection assay was performed to determine the activity of the new mutants. Adult houseflies were immobilized with CO2 for 10 minutes, and then transferred to a CO2 pan to keep immobilized. Flies with weight between 12-20 mg were picked for injection. The new mutants and Av3b control were diluted in water to proper doses for injection. Next, a 0.5 μL peptide solution was injected into each housefly at the dorsal thorax using a hand-microapplicator with 1 cc all-glass syringe with 30 gauge straight needle. The injected flies were then transferred to a 2 oz. transparent portion container with a wet #4 filter paper. Fly knock-down was assessed at 5-hours post-injection. The activity of a given new mutant was then normalized to the activity of the Av3b production strain (control), using the fly knock-down score at 5 hours.

[1] = Proteolytic resistance of Av3b mutants during production-strain fermentation (rpHPLC); assay type: physicochemical; settings: for Degradation?: mutant strain fermentation at pH 6.5, 140 hours, rpHPLC; for degradation product during fermentation (HPLC): production strain fermentation at pH 6.5, rpHPLC
Protocol: The mutants in the table below were evaluated for stability in fermentation beer. Fermentation conditions and HPLC analysis were performed as described above. The mutant production strains were generated using YCT306 K. lactis strain. The production of mutants was performed as described in Example 2; fermentation conditions were performed using the same fermentation process described above regarding the Av3b production strain, with pH control at pH 6.5. […] To identify the mutant with proteolytic resistance, the mutant strains were grown under the same fermentation conditions as Av3b, and samples were taken throughout the fermentation process. The samples taken at 140 hour of fermentation process were analyzed in rpHPLC.

[2] = Stability of purified peptide spiked into Av3b fermentation beer (rpHPLC); assay type: physicochemical
Protocol: To determine the stability of the new mutants, Av3bM19, Av3bM23, Av3bM24, Av3bM25, Av3bM27, and Av3bM28 were purified and incubated in Av3b fermentation beer. The mutants were purified by cation-exchange chromatography using a GE SP-Sephadex C-25 column. The column was first calibrated with 30 mM sodium citrate buffer at pH 3.0. Then, the culture supernatant containing the secreted mutant peptide was loaded into the column to let the mutant peptide bind to the resin. The column was then washed with 30 mM sodium citrate buffer, pH 3.0, followed by washing with 30 mM sodium acetate, pH 4.0. Next, the bound mutant peptide was eluted by 1 M or 2 M NaCl with 30 mM sodium acetate, pH 4.0. The elution was then concentrated and buffer-exchanged to 30 mM sodium acetate, pH 4.0 using a 1 kD cutoff spin concentrator.
After purification, each of the mutants, Av3bM19, Av3bM23, Av3bM24, Av3bM25, Av3bM27, and Av3bM28, were evaluated for stability by spiking them into Av3b strain fermentation beer at pH 6.5. As a negative control, Av3b was evaluated in a pH 4.0 buffer. As a positive control, purified Av3b was evaluated by spiking into the same Av3b fermentation beer at pH 6.5. All stability experiments were performed at room temperature. […] The amount of peptide remaining relative to the beginning was determined by normalizing the peak area at different time to the one at 0 hour for each treatment. The degradation trend is visualized by the bar graph of the relative remaining peptide amount trend.

| Sequence | Activity (houseflies) | Degradation? [1] | other results |
| --- | --- | --- | --- |
| SSCCPCYWGGCPWGQNCYPEGCSGPK (ends and bridges not checked; cysteine pairing not given here) [Av3bM32] | No | – | – |
| KSCCPCYWGGCPWGQNCYPEGCSGRV (ends and bridges not checked; cysteine pairing not given here) [Av3bM147] | – | Yes | – |
| KSCCPCYWGGCPWGQNCYPEGCSGPQ (ends and bridges not checked; cysteine pairing not given here) [Av3bM102] | – | Yes | – |
| KSCCPCYWGGCPWGQNCYPEGCDGPG (ends and bridges not checked; cysteine pairing not given here) [Av3bM171] | – | Yes | – |
| KSCCPCYWGGCPWGQNCYPEGCDGPA (ends and bridges not checked; cysteine pairing not given here) [Av3bM156] | – | Yes | – |
| KSCCPCYWGGCPWGTTCYPNGCDGPK (Av3bM20; VARIANT (1)..(26) Recombinant variant of Anemonia viridis Av3 peptide) | No | – | – |
| KSCCPCYWGGCPWGQNCYPEGCSGPT (ends and bridges not checked; cysteine pairing not given here) [Av3bM111] | – | Yes | – |
| KSCCPCYWGGCPWGQNCYPEGCSGPA (ends and bridges not checked; cysteine pairing not given here) [Av3bM97] | – | Yes | – |
| KSCCPCYWGGCPWGQNCYPEGCDGPT (ends and bridges not checked; cysteine pairing not given here) [Av3bM157] | – | Yes | – |
| KSCCPCYWGGCPWGQNCYPEGCSGPN (ends and bridges not checked; cysteine pairing not given here) [Av3bM99] | – | Yes | – |
| KSCCPCYWGGCPWGQNCYPEGCSGPR (ends and bridges not checked; cysteine pairing not given here) [Av3bM98] | – | No | degradation product during fermentation (HPLC) [1]: did not show any degradation product; also recorded: no degradation product |
| KSCCPCYWGGCPWGQNCYPEGCSGPE (ends and bridges not checked; cysteine pairing not given here) [Av3bM101] | – | Yes | – |
| KSCCPCYWGGCPWGTNCYPEGCSGPK (ends and bridges not checked; cysteine pairing not given here) [Av3bM21] | No | – | – |
| TSCCPCYWGGCPWGQNCYPEGCSGPK (ends and bridges not checked; cysteine pairing not given here) [Av3bM31] | No | – | – |
| QSCCPCYWGGCPWGQNCYPEGCSGPH (ends and bridges not checked; cysteine pairing not given here) [Av3bM30] | No | – | – |
| KSCCPCYWGGCPWGQNCYPEGCSGPKVI [Av3bM168] | – | Yes | – |
| HSCCPCYWGGCPWGQNCYPEGCSGPK (ends and bridges not checked; cysteine pairing not given here) [Av3bM28] | Yes | – | housefly knock-down / insecticidal activity relative to Av3b (houseflies): without a concomitant reduction in housefly knock-down activity; also recorded: insecticidal activity |
| KSCCPCYWGGCPWGQNCYPEGCSGGV (ends and bridges not checked; cysteine pairing not given here) [Av3bM146] | – | Yes | – |
| KSCCPCYWPGCPWGQNCYPEGCRGPD (ends and bridges not checked; cysteine pairing not given here) [Av3bM125] | – | – | half-degradation time ([2]; Av3b production fermentation beer pH 6.5, room temperature (Example 12, FIG. 39)): 369 h; resistance to fermentation beer protease cleavage compared to Av3b ([2]; spiked into Av3b fermentation beer pH 6.5, room temperature): dramatically improved resistance to degradation |
| KSCCPCYWGGCPWGQNCYPEGCSGPD (ends and bridges not checked; cysteine pairing not given here) [Av3bM100] | – | Yes | – |
| KSCCPCYWPGCPWGQNCYPEGCSGPK (ends and bridges not checked; cysteine pairing not given here) [Av3bM25] | Yes | – | housefly knock-down / insecticidal activity relative to Av3b (houseflies): without a concomitant reduction in housefly knock-down activity; also recorded: insecticidal activity |
| KSCCPCYWGGCPWGQNCYPNGCSGPK (Av3bM23; VARIANT (1)..(26) Recombinant variant of Anemonia viridis Av3 peptide) | Yes | – | housefly knock-down / insecticidal activity relative to Av3b (houseflies): without a concomitant reduction in housefly knock-down activity; also recorded: insecticidal activity |
| KSCCPCYWGGCPWGQTCYPEGCSGPK (ends and bridges not checked; cysteine pairing not given here) [Av3bM22] | No | – | – |
| KSCCPCYWGGCPWGQNCYPEGCTGPG (ends and bridges not checked; cysteine pairing not given here) [Av3bM169] | – | Yes | – |
| KSCCPCYWGGCPWGQNCYPEGCSGPH (ends and bridges not checked; cysteine pairing not given here) [Av3bM104] | – | Yes | – |
| KSCCPCYWGGCPWGQNCYPEGCSGPKG [Av3bM148] | – | No | degradation product during fermentation (HPLC) [1]: did not show any degradation product; also recorded: without apparent degradation products |
| KSCCPCYWAGCPWGQNCYPEGCSGPK (ends and bridges not checked; cysteine pairing not given here) [Av3bM27] | Yes | – | housefly knock-down / insecticidal activity relative to Av3b (houseflies): behaved like Av3b; also recorded: insecticidal activity comparable to Av3b |
| SSCCPCYWGGCPWGQNCYPEGCSGPT (ends and bridges not checked; cysteine pairing not given here) [Av3bM33] | No | – | – |
| KSCCPCYWGGCPWGQNCYPEGCDGP (ends and bridges not checked; cysteine pairing not given here) [Av3bM172] | – | Yes | – |
| KSCCPCYWPPCPWGQNCYPEGCSGPK (ends and bridges not checked; cysteine pairing not given here) [Av3bM26] | No | – | – |
